Assay [1] deals with core-fucosylated RNase B (21) (bovine) (UniProt P61823). As to the kind of experiment: ELISA. (ELISA stands for enzyme-linked immunosorbent assay.)
In assay [2] the target is S2G2F-rituximab (30), core-fucosylated sialyl complex type glycoform of rituximab (human). The assay can be described thus: ELISA.

Sequence of UniProt P61823 (P61823 27-150): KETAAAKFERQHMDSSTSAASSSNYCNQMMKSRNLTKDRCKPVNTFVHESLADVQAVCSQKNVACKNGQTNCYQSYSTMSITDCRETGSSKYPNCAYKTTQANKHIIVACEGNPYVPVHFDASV

Usually EC50 stands for the concentration needed to bring the measured effect to its halfway point. Read a low EC50 as an effect from little substance. On to “Aleuria aurantia lectin (AAL) (from UniProt P18891 1-313) (natural protein)”, for which the EC50 in assay [1] turned out to be 275 µM.

B1: Aleuria aurantia lectin (AAL) (natural protein)
chain: MPTEFLYTSKIAAISWAATGGRQQRVYFQDLNGKIREAQRGGDNPWTGGSSQNVIGEAKLFSPLAAVTWKSAQGIQIRVYCVNKDNILSEFVYDGSKWITGQLGSVGVKVGSNSKLAALQWGGSESAPPNIRVYYQKSNGSGSSIHEYVWSGKWTAGASFGSTVPGTGIGATAIGPGRLRIYYQATDNKIREHCWDSNSWYVGGFSASASAGVSIAAISWGSTPNIRVYWQKGREELYEAAYGGSWNTPGQIKDASRPTPSLPDTFIAANSSGNIDISVFFQASGVSLQQWQWISGKGWSIGAVVPTGTPAGW
modifications: biotin (AAL-biotin)
B1 returned an EC50 in assay [2] of 15 µM.

Values taken from paper PMC5695864.
